B1: WT G-CSFR(Ig-CRH), purified, tag cleaved (receptor)
chain: GSMGCGHISVSAPIVHLGDPITASCIIKQNCSHLDPEPQILWRLGAELQPGGRQQRLSDGTQESIITLPHLNHTQAFLSCSLNWGNSLQILDQVELRAGYPPAIPHNLSCLMNLTTSSLICQWEPGPETHLPTSFTLKSFKSRGNCQTQGDSILDCVPKDGQSHCSIPRKHLLLYQNMGIWVQAENALGTSMSPQLCLDPMDVVKLEPPMLRTMDPSPEAAPPQAGCLQLSWEPWQPGLHINQKCELRHKPQRGEASWALVGPLPLEALQYELCGLLPATAYTLQIRCIRWPLPGHWSDWSPSLELRTTE
notes: also called G-CSFRWT; wild type G-CSFR(Ig-CRH)

Tests used:
[1] = target: T1, WT G-CSF, purified from insect cells, tag cleaved (human, UniProt P09919 31-206); test: SPR (Biacore T200, 25 °C), single-cycle kinetics, 1:1 Langmuir fit; lower end of the range found for the WT:WT pair
T1 construct: protein of the SPR; also called G-CSFWT; wild type G-CSF
T1 sequence: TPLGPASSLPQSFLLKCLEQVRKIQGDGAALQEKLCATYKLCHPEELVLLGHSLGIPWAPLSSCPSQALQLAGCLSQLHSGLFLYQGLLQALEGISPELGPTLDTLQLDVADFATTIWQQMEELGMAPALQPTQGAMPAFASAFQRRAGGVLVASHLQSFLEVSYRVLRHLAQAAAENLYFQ
Protocol: (§1) To assess binding affinity of G-CSFE to G-CSFRWT, recombinant G-CSFRWT purified as described in Example 5 was captured as described above in this Example. Using single-cycle kinetics, six concentrations of a two-fold dilution series of each G-CSFE mutant starting at […] with a blank buffer control were sequentially injected as described above. The same sample titration was also performed on a reference cell with no variants captured. The G-CSFRWT surface was regenerated as described above.
(§2) Double-referenced sensorgrams from duplicate or triplicate repeat injections were analyzed using Biacore™ T200 Evaluation Software v3.0 and fit to the 1:1 Langmuir binding model.
(§3) Kinetic-derived affinity constants (KD) where obtained by fitting the association and dissociation phases of the curves. The KD of WT G-CSF for WT G-CSFR(Ig-CRH) ranged between 1.8-2.5E-9. For the cases in which the kinetic parameters could not be fit an attempt was made to derive a steady state affinity constant. In those cases, the KD fold change was calculated from the steady state derived KD for the WT G-CSF:WT G-CSFR(Ig-CRH) pair and is indicated in Table 7.

[2] = target: T2, design 402 G-CSFR(Ig-CRH)E, tag cleaved (human, UniProt Q99062 26-331); test: SPR, G-CSFRE amine-coupled, G-CSFE injected; steady state derived affinity constant
T2 chain: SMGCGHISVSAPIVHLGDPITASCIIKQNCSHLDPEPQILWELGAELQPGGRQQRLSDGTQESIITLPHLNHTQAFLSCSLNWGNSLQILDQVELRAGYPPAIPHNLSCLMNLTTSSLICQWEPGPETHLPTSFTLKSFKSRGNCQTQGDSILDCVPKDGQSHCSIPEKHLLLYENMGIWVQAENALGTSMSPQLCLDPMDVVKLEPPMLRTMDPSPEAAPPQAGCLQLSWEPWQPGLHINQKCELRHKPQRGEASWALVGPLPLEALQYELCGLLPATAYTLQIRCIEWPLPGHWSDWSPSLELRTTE
Protocol: (§4) To determine binding affinity of G-CSFE to G-CSFRE the G-CSFRE mutant was captured by standard amine coupling as described by the manufacturer (GE LifeSciences). Briefly, immediately after EDC/NHS activation, a 5 μg/mL solution of G-CSFRE in 10 mM NaOAc, pH 5.0, was injected at a flow rate of 5 μL/min until a receptor density of ˜700-900 RU was reached. The remaining active groups were quenched by a 420 s injection of 1 M ethanolamine hydrochloride-NaOH pH 8.5 at 10 μL/min. Using single-cycle kinetics, six concentrations of a two-fold dilution series of the corresponding G-CSFE mutant starting at 200 nM with a blank buffer control were sequentially injected at 25 μL/min for 300 s with a 1800 s dissociation phase, resulting in a set of sensorgrams with a buffer blank reference. The same sample titration was also performed on a reference cell with no variants captured. The chip was regenerated to prepare for the next injection cycle by one pulse of 10 mM glycine/HCl, pH 2.0, for 30 s at 30 μL/min.
as §2, §3

[3] = target: B1; test: SPR, single-cycle kinetics, G-CSFR(Ig-CRH) on the chip, G-CSF injected
Protocol: The SPR binding assays were carried out on a Biacore T200 instrument (GE Healthcare, Mississauga, ON, Canada) with PBS-T (PBS+0.05% (v/v) Tween 20) running buffer at a temperature of 25° C. CM5 Series S sensor chip, Biacore amine coupling kit (NHS, EDC and 1 M ethanolamine), and 10 mM sodium acetate buffers were all purchased from GE Healthcare. PBS running buffer with 0.05% Tween20 (PBS-T) was purchased from Teknova Inc. (Hollister, CA). Designs were assessed in three different immobilization orientations.
as §1, §2

[4] = target: T3, design 130 G-CSFR(Ig-CRH)E, tag cleaved (human, UniProt Q99062 26-331); test: SPR, G-CSFRE amine-coupled, G-CSFE injected, single-cycle kinetics
T3 construct: also called 130 ECD (Ig-CRH)
T3 chain: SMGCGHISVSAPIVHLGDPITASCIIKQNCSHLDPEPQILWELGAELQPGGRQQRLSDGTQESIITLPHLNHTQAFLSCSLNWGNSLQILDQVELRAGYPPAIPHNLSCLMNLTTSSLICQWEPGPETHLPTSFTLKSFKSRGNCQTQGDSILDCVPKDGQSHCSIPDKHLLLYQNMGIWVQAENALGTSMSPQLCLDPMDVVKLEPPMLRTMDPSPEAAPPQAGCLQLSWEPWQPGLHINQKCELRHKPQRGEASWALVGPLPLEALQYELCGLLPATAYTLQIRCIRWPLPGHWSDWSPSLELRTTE

[5] = target: T4, design 134 G-CSFR(Ig-CRH)E, tag cleaved (human, UniProt Q99062 26-331); test: as above
T4 construct: also called design 137 G-CSFR(Ig-CRH)E
T4 chain: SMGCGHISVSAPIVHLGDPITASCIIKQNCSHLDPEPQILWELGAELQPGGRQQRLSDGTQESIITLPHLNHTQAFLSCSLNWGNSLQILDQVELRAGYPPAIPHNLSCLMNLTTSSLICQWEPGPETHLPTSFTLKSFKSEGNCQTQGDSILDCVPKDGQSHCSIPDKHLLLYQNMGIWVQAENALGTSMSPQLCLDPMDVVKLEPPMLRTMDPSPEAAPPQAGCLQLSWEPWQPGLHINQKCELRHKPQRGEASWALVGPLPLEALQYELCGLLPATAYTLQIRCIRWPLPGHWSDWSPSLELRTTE

[6] = target: T5, design 401 G-CSFR(Ig-CRH)E, tag cleaved (human, UniProt Q99062 26-331); test: SPR, G-CSFRE amine-coupled, G-CSFE injected; steady state derived affinity constant
T5 chain: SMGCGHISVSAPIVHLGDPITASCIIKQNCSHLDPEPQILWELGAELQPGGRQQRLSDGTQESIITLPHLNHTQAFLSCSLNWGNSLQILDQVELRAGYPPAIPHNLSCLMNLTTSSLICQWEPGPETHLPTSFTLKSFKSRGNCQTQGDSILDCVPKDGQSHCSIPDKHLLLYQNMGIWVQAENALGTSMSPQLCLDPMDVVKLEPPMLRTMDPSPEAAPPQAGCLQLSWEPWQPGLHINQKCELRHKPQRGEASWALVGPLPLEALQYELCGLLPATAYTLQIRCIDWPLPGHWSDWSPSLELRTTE
Protocol: as §4, §2, §3

Binder B1 has a Kd [1] of 1.8 to 2.5 nM.

B2: design 402 G-CSFE, tag cleaved (ligand)
chain: TPLGPASSLPQSFLLKCLKQVRKIQGDGAALQEKLCATYKLCHPERLVLLGHSLGIPWAPLSSCPSQALQLAGCLSQLHSGLFLYQGLLQALEGISPELGPTLDTLQLDVAKFAKTIWQQMEELGMAPALQPTQGAMPAFASAFQRRAGGVLVASHLQSFLEVSYRVLRHLAQAAAENLYFQ
B2 was tested, and the “KD fold change (against WT:WT)” value [2] was 0.8 fold and the binding result [3] was “no binding”.

B3: design 130 G-CSFE, tag cleaved (ligand)
chain: TPLGPASSLPQSFLLKCLEQVRKIQGDGAALQEKLCATYKLCHPERLVLLGHSLGIPWAPLSSCPSQALQLAGCLSQLHSGLFLYQGLLQALEGISPELGPTLDTLQKDVARFATTIWQQMEELGMAPALQPTQGAMPAFASAFQRRAGGVLVASHLQSFLEVSYRVLRHLAQAAAENLYFQ
notes: also called design 137 G-CSFE; G-CSF137
In the case of B3, the “KD fold change (against WT:WT)” value [4] is reported as 0.9 fold, the “KD fold change (against WT:WT)” value [5] is reported as 0.3 fold and the binding result [3] is reported as “no binding”.

B4: design 401 G-CSFE, tag cleaved (ligand)
chain: TPLGPASSLPQSFLLKCLKQVRKIQGDGAALQEKLCATYKLCHPERLVLLGHSLGIPWAPLSSCPSQALQLAGCLSQLHSGLFLYQGLLQALEGISPELGPTLDTLQKDVARFATTIWQQMEELGMAPALQPTQGAMPAFASAFQRRAGGVLVASHLQSFLEVSYRVLRHLAQAAAENLYFQ
With B4 the “KD fold change (against WT:WT)” value [6] was 0.6 fold and the binding result [3] was “no binding”.

From patent US20240254182A1 (PROVINCIAL HEALTH SERVICES AUTHORITY, published 2024)
